One block for each binder: values may come before it.
Experiments:
[1] = biological target: T1, soluble extracellular D2-D3 region of human FGFR1c (Asp142-Arg365) (human, UniProt P11362 142-365); assay: SPR
T1 chain: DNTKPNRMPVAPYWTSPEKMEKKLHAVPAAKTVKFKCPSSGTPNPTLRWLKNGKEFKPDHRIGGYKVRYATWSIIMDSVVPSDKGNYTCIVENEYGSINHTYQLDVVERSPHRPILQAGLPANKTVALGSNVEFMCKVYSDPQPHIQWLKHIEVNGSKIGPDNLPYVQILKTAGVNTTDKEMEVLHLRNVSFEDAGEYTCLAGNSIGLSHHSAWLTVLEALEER

[2] = biological target: T2, soluble extracellular D2-D3 region of human FGFR1c (Asp142-Arg365) (human, UniProt P11362 142-365); assay: SPR; BIAcore T200; HBS-EP buffer (10 mM HEPES-NaOH, pH 7.4, 150 mM NaCl, 3 mM EDTA, 0.005% Surfactant P20); which partner was immobilised is not told in the main text; details: both partners purified
T2 construct: fibroblast growth factor receptor 1, 'c' splice isoform, human, extracellular D2-D3 region, residues Asp142-Arg365; also called FGFR1c ectodomain; FGFR1c isoform; source: E. coli (BL21), purified
T2 sequence (looked up): T1 chain

Kd [1]: 716 nM
binding result [2]: binds
B1: N-terminally truncated human FGF4 (rFGF4) (Ala67-Leu206) (domain or fragment, UniProt P08620 67-206, looked up)
chain: AAVQSGAGDYLLGIKRLRRLYCNVGIGFHLQALPDGRIGGAHADTRDSLLELSPVERGVVSIFGVASRFFVAMSSKGKLYGSPFFTDECTFKEILLPNNYNAYESYKYPGMFIALSKNGKTKKGNRVSPTMKVTHFLPRL
notes: fibroblast growth factor 4, human, engineered N-terminal truncation, residues Ala67-Leu206; also called truncated rFGF4; source: E. coli (BL21), purified

Kd [1]: 464 nM
binding result [2]: binds
B2: full length mature form human FGF4 (mFGF4) (Ala31-Leu206) (ligand, UniProt P08620 31-206, looked up)
chain: APTAPNGTLEAELERRWESLVALSLARLPVAAQPKEAAVQSGAGDYLLGIKRLRRLYCNVGIGFHLQALPDGRIGGAHADTRDSLLELSPVERGVVSIFGVASRFFVAMSSKGKLYGSPFFTDECTFKEILLPNNYNAYESYKYPGMFIALSKNGKTKKGNRVSPTMKVTHFLPRL
notes: fibroblast growth factor 4, human, full length mature form, residues Ala31-Leu206; also called wild-type parent molecule; source: E. coli (BL21), purified

Reference: publication PMC8671394, “Paracrine FGFs target skeletal muscle to exert potent anti-hyperglycemic effects” (Nature Communications, 2021)
